Experimental data from paper PMC9482650, “Quantitative fragmentomics allow affinity mapping of interactomes” (Nature Communications, 2022).

Key:
Test in all cases: holdup assay
Conditions in all cases: plain residues with an end cap or a label only (N-terminal biotin on a linker: (peg)3)
GIPC3, Q8TF64 = molecular target: GIPC3, Q8TF64
RIMS1, Q86UR5 = molecular target: RIMS1, Q86UR5
MAST3, O60307 = molecular target: MAST3, O60307
MAGIX, Q9H6Y5 = molecular target: MAGIX, Q9H6Y5
MAGI1_5, Q96QZ7 = molecular target: MAGI1_5, Q96QZ7
MAGI3_4, Q5TCQ9 = molecular target: MAGI3_4, Q5TCQ9
PDLIM3, Q53GG5 = molecular target: T1, PDLIM3, Q53GG5
T1 sequence (Q53GG5 1-94, limits assumed, looked up): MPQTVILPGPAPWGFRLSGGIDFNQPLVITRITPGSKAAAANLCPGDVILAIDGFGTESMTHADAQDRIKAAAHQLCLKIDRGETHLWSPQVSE

SCRIB_4, Q14160 = molecular target: SCRIB_4, Q14160
APBA3_2, O96018 = molecular target: T2, APBA3_2, O96018
T2 sequence (O96018 480-570, limits assumed, looked up): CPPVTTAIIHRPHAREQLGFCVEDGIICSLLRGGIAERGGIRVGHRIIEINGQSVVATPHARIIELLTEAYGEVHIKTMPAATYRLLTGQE

TJP1_1, Q07157 = molecular target: TJP1_1, Q07157
PDZD7_1, Q9H5P4 = molecular target: T3, PDZD7_1, Q9H5P4
T3 sequence (Q9H5P4 81-178, limits assumed, looked up): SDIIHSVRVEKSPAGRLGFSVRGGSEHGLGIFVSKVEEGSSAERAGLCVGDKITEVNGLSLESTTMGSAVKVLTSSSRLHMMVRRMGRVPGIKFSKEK

PDZRN4_2, Q6ZMN7 = molecular target: PDZRN4_2, Q6ZMN7
RIMS2, Q9UQ26 = molecular target: RIMS2, Q9UQ26
PARD6G, Q9BYG4 = molecular target: T4, PARD6G, Q9BYG4
T4 sequence (Q9BYG4 153-261, limits assumed, looked up): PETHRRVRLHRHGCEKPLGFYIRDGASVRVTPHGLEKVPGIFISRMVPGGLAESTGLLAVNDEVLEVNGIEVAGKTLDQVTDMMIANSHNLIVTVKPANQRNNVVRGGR

GIPC1, O14908 = molecular target: T5, GIPC1, O14908
T5 sequence (O14908 128-223, limits assumed, looked up): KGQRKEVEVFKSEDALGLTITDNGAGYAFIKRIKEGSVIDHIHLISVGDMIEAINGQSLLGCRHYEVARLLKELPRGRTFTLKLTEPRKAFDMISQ

INTU, Q9ULD6 = molecular target: T6, INTU, Q9ULD6
T6 sequence (Q9ULD6 180-273, limits assumed, looked up): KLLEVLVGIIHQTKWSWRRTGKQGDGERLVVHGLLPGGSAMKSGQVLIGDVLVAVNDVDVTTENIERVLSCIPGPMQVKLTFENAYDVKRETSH

MPDZ_3, O75970 = molecular target: T7, MPDZ_3, O75970
T7 sequence (O75970 372-473, limits assumed, looked up): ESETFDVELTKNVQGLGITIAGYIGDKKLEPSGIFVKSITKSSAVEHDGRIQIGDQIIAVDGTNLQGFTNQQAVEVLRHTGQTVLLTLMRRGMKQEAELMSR

SHROOM3, Q8TF72 = molecular target: T8, SHROOM3, Q8TF72
T8 sequence (Q8TF72 20-120, limits assumed, looked up): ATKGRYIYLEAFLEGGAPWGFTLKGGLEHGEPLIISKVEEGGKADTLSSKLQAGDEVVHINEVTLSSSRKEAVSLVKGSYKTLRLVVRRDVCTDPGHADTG

PDZD11, Q5EBL8 = molecular target: T9, PDZD11, Q5EBL8
T9 sequence (Q5EBL8 42-139, limits assumed, looked up): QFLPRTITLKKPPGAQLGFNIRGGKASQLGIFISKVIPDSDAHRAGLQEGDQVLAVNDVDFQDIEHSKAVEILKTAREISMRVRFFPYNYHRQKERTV

LIMK1, P53667 = molecular target: LIMK1, P53667
MPDZ_13, O75970 = molecular target: T10, MPDZ_13, O75970
T10 sequence (O75970 1982-2070, limits assumed, looked up): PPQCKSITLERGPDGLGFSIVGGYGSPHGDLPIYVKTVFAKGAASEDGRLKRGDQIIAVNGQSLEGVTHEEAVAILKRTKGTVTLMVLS

MPP1, Q00013 = molecular target: T11, MPP1, Q00013
T11 sequence (Q00013 66-162, limits assumed, looked up): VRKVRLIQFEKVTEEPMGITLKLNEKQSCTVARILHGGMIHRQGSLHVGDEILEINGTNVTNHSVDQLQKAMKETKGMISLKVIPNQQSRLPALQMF

MAGI3_5, Q5TCQ9 = molecular target: MAGI3_5, Q5TCQ9
PTPN13_2, Q12923 = molecular target: PTPN13_2, Q12923
PDZD8, Q8NEN9 = molecular target: T12, PDZD8, Q8NEN9
T12 sequence (Q8NEN9 361-459, limits assumed, looked up): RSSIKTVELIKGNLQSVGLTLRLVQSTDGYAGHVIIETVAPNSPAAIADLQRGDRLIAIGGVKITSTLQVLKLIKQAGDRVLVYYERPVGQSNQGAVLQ

SCRIB_4, Q14160, sequence (Q14160 1095-1204): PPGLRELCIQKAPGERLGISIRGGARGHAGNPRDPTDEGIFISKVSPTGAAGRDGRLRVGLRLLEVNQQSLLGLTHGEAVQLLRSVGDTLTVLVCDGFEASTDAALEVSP
MAGI1_5, Q96QZ7, sequence (Q96QZ7 986-1098): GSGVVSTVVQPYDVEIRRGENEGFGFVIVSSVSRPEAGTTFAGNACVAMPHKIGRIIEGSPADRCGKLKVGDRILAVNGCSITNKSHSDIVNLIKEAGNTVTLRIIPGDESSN
LIMK1, P53667, sequence (P53667 155-268): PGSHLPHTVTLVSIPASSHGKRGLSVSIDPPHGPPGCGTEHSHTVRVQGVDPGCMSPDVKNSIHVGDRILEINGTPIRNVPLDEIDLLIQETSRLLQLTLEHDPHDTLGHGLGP
TJP1_1, Q07157, sequence (Q07157 18-120): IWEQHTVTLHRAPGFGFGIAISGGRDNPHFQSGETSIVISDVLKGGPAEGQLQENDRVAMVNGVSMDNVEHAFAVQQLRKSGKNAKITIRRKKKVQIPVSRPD
MAST3, O60307, sequence (O60307 945-1048): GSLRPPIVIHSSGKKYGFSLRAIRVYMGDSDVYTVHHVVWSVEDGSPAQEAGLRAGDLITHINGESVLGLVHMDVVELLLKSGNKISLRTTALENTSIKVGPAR
MAGI3_5, Q5TCQ9, sequence (Q5TCQ9 847-941): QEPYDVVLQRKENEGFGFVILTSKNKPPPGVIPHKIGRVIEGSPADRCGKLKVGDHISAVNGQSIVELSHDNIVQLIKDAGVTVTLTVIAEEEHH
RIMS2, Q9UQ26, sequence (Q9UQ26 637-758): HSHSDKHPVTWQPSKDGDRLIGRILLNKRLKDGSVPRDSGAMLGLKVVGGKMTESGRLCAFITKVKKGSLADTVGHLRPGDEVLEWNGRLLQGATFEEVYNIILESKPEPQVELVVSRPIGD
PTPN13_2, Q12923, sequence (Q12923 1363-1462): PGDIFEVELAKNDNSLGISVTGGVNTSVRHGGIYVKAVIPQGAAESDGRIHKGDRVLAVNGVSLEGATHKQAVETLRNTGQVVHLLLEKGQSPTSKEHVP
MAGI3_4, Q5TCQ9, sequence (Q5TCQ9 716-815): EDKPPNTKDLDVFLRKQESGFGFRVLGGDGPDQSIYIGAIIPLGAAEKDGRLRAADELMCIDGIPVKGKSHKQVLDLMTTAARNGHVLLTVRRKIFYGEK
MAGIX, Q9H6Y5, sequence (Q9H6Y5 118-211): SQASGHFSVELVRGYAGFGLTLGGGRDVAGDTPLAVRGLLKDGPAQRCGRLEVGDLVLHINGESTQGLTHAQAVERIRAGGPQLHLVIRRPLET
PDZRN4_2, Q6ZMN7, sequence (Q6ZMN7 389-498): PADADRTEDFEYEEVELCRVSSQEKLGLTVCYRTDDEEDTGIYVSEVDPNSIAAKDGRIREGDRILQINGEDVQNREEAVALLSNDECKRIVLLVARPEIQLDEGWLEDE
RIMS1, Q86UR5, sequence (Q86UR5 584-692): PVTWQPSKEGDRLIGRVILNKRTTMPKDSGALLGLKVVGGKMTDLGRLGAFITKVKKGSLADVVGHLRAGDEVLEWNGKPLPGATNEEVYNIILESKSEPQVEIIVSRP
GIPC3, Q8TF64, sequence (Q8TF64 107-202): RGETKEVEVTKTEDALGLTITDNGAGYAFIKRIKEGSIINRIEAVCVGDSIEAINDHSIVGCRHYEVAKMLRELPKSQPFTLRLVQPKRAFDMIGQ

B1: SARS-CoV-E, P59637 (peptide)
chain: NLNSSEGVPDLLV
In the case of B1, the pKd (GIPC3, Q8TF64) is reported as “below the threshold”, the pKd (RIMS1, Q86UR5) is reported as “below the threshold” and the pKd (MAST3, O60307) is reported as “below the threshold”. The pKd (MAGIX, Q9H6Y5) was “below the threshold”, the pKd (MAGI1_5, Q96QZ7) was “below the threshold” and the pKd (MAGI3_4, Q5TCQ9) was “below the threshold”. The pKd (PDLIM3, Q53GG5) was “below the threshold”, the pKd (SCRIB_4, Q14160) was “below the threshold” and the pKd (APBA3_2, O96018) was “below the threshold”. The pKd (TJP1_1, Q07157) was “below the threshold”, the pKd (PDZD7_1, Q9H5P4) was “below the threshold” and the pKd (PDZRN4_2, Q6ZMN7) was 4.05. For the same binder, the pKd (RIMS2, Q9UQ26) was “below the threshold”, the pKd (PARD6G, Q9BYG4) was “below the threshold” and the pKd (GIPC1, O14908) was “below the threshold”. The pKd (INTU, Q9ULD6) was “below the threshold”, the pKd (MPDZ_3, O75970) was “below the threshold” and the pKd (SHROOM3, Q8TF72) was “below the threshold”. The pKd (PDZD11, Q5EBL8) was “below the threshold”, the pKd (LIMK1, P53667) was “below the threshold” and the pKd (MPDZ_13, O75970) was “below the threshold”. The pKd (MPP1, Q00013) was “below the threshold”, the pKd (MAGI3_5, Q5TCQ9) was “below the threshold” and the pKd (PTPN13_2, Q12923) was “below the threshold”. For the same binder, the pKd (PDZD8, Q8NEN9) was “below the threshold”.
